Measured values as given in patent publication US20200262888A1 (HANMI PHARM, published 2020).
Where a chain is given by its changes, count along the chain named. Non-standard residues stand in square brackets, D forms with d. No end group written: not given here. *: point of attachment. Acetyl(2-(4-imidazolyl)) = O=C(Cc1c[nH]cn1)*

T1: human GLP-2 receptor (human, UniProt O95838 1-553)
T1 sequence (looked up): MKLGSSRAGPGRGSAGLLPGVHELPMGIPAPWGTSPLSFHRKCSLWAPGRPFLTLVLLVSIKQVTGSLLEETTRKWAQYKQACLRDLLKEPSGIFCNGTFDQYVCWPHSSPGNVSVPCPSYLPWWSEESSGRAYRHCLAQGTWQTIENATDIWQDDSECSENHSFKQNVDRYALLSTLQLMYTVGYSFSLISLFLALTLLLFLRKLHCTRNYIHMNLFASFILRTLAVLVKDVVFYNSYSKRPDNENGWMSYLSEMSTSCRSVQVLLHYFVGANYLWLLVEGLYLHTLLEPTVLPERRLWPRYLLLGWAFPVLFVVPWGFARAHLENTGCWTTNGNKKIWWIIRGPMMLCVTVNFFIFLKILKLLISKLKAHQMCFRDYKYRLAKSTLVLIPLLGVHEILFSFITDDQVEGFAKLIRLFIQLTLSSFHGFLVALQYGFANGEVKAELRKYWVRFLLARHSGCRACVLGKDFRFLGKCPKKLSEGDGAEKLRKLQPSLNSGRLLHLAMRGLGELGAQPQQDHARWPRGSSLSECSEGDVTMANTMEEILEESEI

B1: CA GLP-2 RC (peptide)
peptide: [Acetyl(2-(4-imidazolyl))]GDGSFSDEMNTILDNLAARDFINWLIQTRITDC
B2: CA GLP-2 KC (peptide)
peptide: XGDGSFSDEMNTILDNLAARDFINWLIQTKITDC
modifications: position 1 is imidazoacetyldeshistidine (caH) instead of histidine
B3: CA GLP-2 KK (peptide)
peptide: B2 peptide with C34K
modifications: position 1 is imidazoacetyldeshistidine (caH) instead of histidine
B4: CA GLP-2 RK (peptide)
peptide: [Acetyl(2-(4-imidazolyl))]GDGSFSDEMNTILDNLAARDFINWLIQTRITDK

Biological target: T1, human GLP-2 receptor
Test: cell-based or functional assay

Row | In vitro activity compared to human GLP-2 (%) (relative titer from EC50 of cAMP accumulation, CHO-K1 cells expressing human GLP-2 receptor) | Molecule
1 | 148 | Teduglutide (Gattex, Shire) (peptide)
2 | 120 | B1
3 | 149 | B2
4 | 206 | B3
5 | 333 | B4
